Data on one protein can be found in article PMC2275143 (Nucleic Acids Research, 2008).

This series concerns the molecule itself. The experiment in a line: AUC.

B1: Nep1 from Methanocaldococcus jannaschii (native protein) (enzyme, UniProt Q57977 2-205, looked up)
chain: TYNIILAKSALELIPEEIKNKIRKSRVYKYDILDSNYHYKAMEKLKDKEMRGRPDIIHISLLNILDSPINHEKKLNIYIHTYDDKVLKINPETRLPRNYFRFLGVMEKVLKGERNHLIKMEEKTLEDLLNEINAKKIAIMTKTGKLTHPKLLKEYDTFIIGGFPYGKLKINKEKVFGDIKEISIYNKGLMAWTVCGIICYSLSF
As a reminder, the stoichiometry N is the number of molecules, sites or subunits per partner or assembly. As for B1, the “stoichiometry N” value came to 2.
